The target in assay [1] is SARS-CoV-2 Beta-variant Spike with six stabilizing proline substitutions (S-6P) (SARS-CoV-2 Beta variant (B.1.351), strain).
Assay [2] concerns the target SARS-CoV-2 Omicron BA.1 receptor-binding domain (RBD) (SARS-CoV-2 Omicron BA.1, strain, biotin on the AviTag (expressed in the presence of BirA)). The experiment in a line: BLI. As to conditions: both partners purified.

B1: REGN10987 VH R16G-V108D (antibody, V domains shown)
VH: QVQLVESGGGVVQPGGSLRLSCAASGFTFSNYAMYWVRQAPGKGLEWVAVISYDGSNKYYADSVKGRFTISRDNSKNTLYLQMNSLRTEDTAVYYCASGSDYGDYLLDYWGQGTLVTVSS
VL: QSALTQPASVSGSPGQSITISCTGTSSDVGGYNYVSWYQQHPGKAPKLMIYDVSKRPSGVSNRFSGSKSGNTASLTISGLQSEDEADYYCNSLTSISTWVFGGGTKLTVL
Turning to B1, in assay [1], the binding result is listed as “binds”.

B2: another design of REGN10987 (5.1-fold improvement for the Omicron BA.1 RBD), Fab (Fab, V domains shown)
VH: QVQLVESGGGVVQPGGSLRLSCAASGFTFSNYAMYWVRQAPGKGLEWVAVISYDGSNKYYADSVKGRFTISRDNSKNTLYLQMNSLRTEDTAVYYCASGSDYGDYLLVYWGQGTLVTVSS
VL: QSALTQPASVSGSPGQSITISCTGTSSDVGGYNYVSWYQQHPGKAPKLMIYDVSKRPSGVSNRFSGSKSGNTASLTISGLQSEDEADYYCCSLTSISTWVFGGGTKLTVL
As for B2, the “fold improvement in Fab Kd over wild-type” value in assay [2] was found to be 5.1 fold.

B3: best design of C143, IgG (antibody, V domains shown)
VH: EVQLVESGGGLVQPGGSLRLSCAASGFSVSTKYMTWVRQAPGKGLEWVSVLYSGGSDYYADSVKGRFTISRDNSKNALYLQMNSLRVEDTGVYYCARDSSEVRDHPGHPGRSVGAFDIWGQGTMVTVSS
VL: QSALTQPASVSGSPGQSITISCTGTSNDVGSYNLVSWYQQYPGKAPKLLIFEVTKRSSGISNRFSGSKSGNTASLTISGLQGEDEADYYCCSYAGASTFVFGGGTKLTVL
For B3, the “fold improvement in apparent Kd over wild-type” value in assay [2] came out at 3.8 fold.

Values taken from article PMC10869273 (Nature Biotechnology, 2023).
